# According to publication PMC6030378:
# Target: human IgG1 Fc fragment released from ROR-ED-Fc by 3C protease (human)
# Experiment: SEC; Superdex 200 10/300 of the fusion protein cleaved with 3C protease; 50 mM HEPES, 500 mM NaCl, 150 mM KCl, 300 mM arginine, 5% glycerol; ROR-ED at 12.4 ml, Fc at 14.3 ml; mass estimated against standards, glycans considered
substance,measurement,value
human IgG1 Fc fragment released from ROR-ED-Fc by 3C protease (domain or fragment),stoichiometry N,2
